Seven molecules from article PMC9065035, “Structural basis for the synthesis of the core 1 structure by C1GalT1” (Nature Communications, 2022) can be followed below.

Sequences and labels used below:
B1: DmC1GalT1^S73-Q388 (Drosophila melanogaster C1GalT1, residues S73-Q388) (enzyme)
chain: not shown
modifications: N-glycans trimmed with Endoglycosidase-H (expressed with kifunensine)
notes: C1GalT1 (core 1 synthase) of Drosophila melanogaster, residues S73-Q388; Expressed with the honey bee mellitin secretion signal in front (pFastBac1-mellitin-DmC1GalT1-6His); two molecules in the asymmetric unit arranged as a homodimer; also called truncated version of DmC1GalT1; mellitin-DmC1GalT1-6His; source: High Five insect cells (baculovirus), secreted, purified (His-Trap, Endo-H, MBP-Trap, …)

Series [1] deals with the molecule itself. Description: crystal structure; 15 mg/mL DmC1GalT1^S73-Q388, 5 mM UDP, 2 mM MnCl2, 5 mM APDT*RP; space group P2_(1); 2.40 Å.
Series [2] deals with the molecule itself. As to the kind of experiment: SEC; size exclusion chromatography of DmC1GalT1^S73-Q388 against protein markers of known molecular weight. For orientation: SEC sorts molecules by how far they enter the pores of the column.
Series [3] concerns the molecule itself. As to the kind of experiment: crystal structure; DmC1GalT1^S73-Q388 (15 mg/mL) with 5 mM UDP, 2 mM MnCl2 and 5 mM APDT*RP; space group P21; 2.40 Å.
Series [4] deals with T1, DmC1GalT1^T43-Q388 (Drosophila melanogaster C1GalT1, residues T43-Q388) (Drosophila melanogaster).
T1 construct: N-glycosylated (lower eukaryotes' C1GalT1 are N-glycosylated); The pHLSec vector (AgeI/KpnI) may leave a few vector residues at both ends (surmise); the SEC was done with the S73-Q388 construct; also called core 1/T-synthase; DmC1GalT1-His; source: HEK293, transfected (pHLSec), secreted, purified (His-Trap, Superdex 75)
As to the kind of experiment: ITC; in the absence of UDP: 2 mM glycopeptide titrated into 60 µM DmC1GalT1^T43-Q388; 20 °C; 25 mM TRIS pH 7.5, 150 mM NaCl, 1 mM MnCl2; one-site model; duplicate. The settings on record: both partners purified. Background: Isothermal titration calorimetry measures the heat released or taken up as one component is titrated into another.

Series [5] addresses T1, DmC1GalT1^T43-Q388 (Drosophila …). As to the kind of experiment: ITC; under an excess of UDP: 2 mM (glyco)peptide titrated into DmC1GalT1^T43-Q388 (60 µM for APDT*RP and APDTRP, 50 µM for P4/P7); 20 °C; 25 mM TRIS pH 7.5, 150 mM NaCl, 1 mM UDP, 1 mM MnCl2; one-site model; duplicate. As to conditions: both partners purified.
Another series concerns the target DmC1GalT1^T43-Q388 Y325A (Drosophila melanogaster, UniProt Q7K237 43-388, Y325A). As to the kind of experiment: cell-based or functional assay.
For another series, the target named is DmC1GalT1^T43-Q388 R152A (Drosophila melanogaster, UniProt Q7K237 43-388, R152A). Description: cell-based or functional assay.
In another series the target is DmC1GalT1^T43-Q388 Y213A (Drosophila melanogaster, UniProt Q7K237 43-388, Y213A). As to the kind of experiment: cell-based or functional assay.
Series [6] deals with B1. Description: crystal structure; 15 mg/mL DmC1GalT1^S73-Q388, 5 mM UDP, 2 mM MnCl2, 5 mM APDT*RP; space group P2_(1); 2.40 Å. As to conditions: both partners purified.
The target in series [7] is T2, Drosophila melanogaster C1GalT1, residues T43-Q388 (DmC1GalT1^T43-Q388) (Drosophila melanogaster, UniProt Q7K237 43-388).
T2 construct: N-glycosylated when made in HEK293; also called core 1/T-synthase; source: HEK293, transfected (pHLSec), secreted, purified (His-Trap, Superdex 75)
As to the kind of experiment: ITC; 2 mM glycopeptide titrated into 60 uM enzyme; no UDP: 25 mM TRIS pH 7.5, 150 mM NaCl, 1 mM MnCl2; 20 °C; one-site model; duplicate. As to conditions: both partners purified.

The target of series [8] is T2, Drosophila melanogaster C1GalT1, …. Description: ITC; 2 mM glycopeptide titrated into the enzyme (60 uM for APDT*RP, 50 uM for P4/P7); excess of UDP: 25 mM TRIS pH 7.5, 150 mM NaCl, 1 mM UDP, 1 mM MnCl2; 20 °C; one-site model; duplicate. The settings on record: both partners purified.

Ends that are not written are not given here. * marks the point of attachment. αGalNAc = CC(=O)N[C@@H]1[C@@H](O)[C@@H](O)[C@@H](CO)O[C@@H]1*

For B1, in [1], the “stoichiometry N” value is 2.

B2: DmC1GalT1^S73-Q388 (Drosophila melanogaster C1GalT1, residues S73-Q388) (enzyme)
chain: not shown
modifications: N-glycans trimmed with Endo-H
notes: C1GalT1 of Drosophila melanogaster, residues S73-Q388; Homodimer by SEC and in the crystal; also called truncated version of DmC1GalT1; DmC1GalT1-His
Turning to B2, the “stoichiometry N” value in series [2] and in series [3] was 2 throughout.

B3: P4 (PAAT*GPY) glycopeptide (peptide)
peptide: PAAT(αGalNAc)GPY-NH2
notes: designed acceptor glycopeptide; Made on Rink Amide resin, so a C-terminal amide is to be expected; source: synthetic peptide (solid-phase, Rink Amide MBHA resin, HPLC purified)
As for B3, the equilibrium dissociation constant (Kd) in series [4] was 41 µM; in series [5] it was 60.4 µM. Further, the “stoichiometry N” value in series [4] was determined as 0.98; in series [5] it was 0.88.

B4: APDT*RP glycopeptide (MUC1 tandem repeat epitope with alpha-GalNAc on Thr) (peptide)
peptide: APDT(αGalNAc)RP-NH2
modifications: N-terminus assumed
SMILES: CC(=O)N[C@H]1[C@@H](O[C@H](C)[C@H](NC(=O)[C@H](CC(=O)O)NC(=O)[C@@H]2CCCN2C(=O)[C@H](C)N)C(=O)N[C@@H](CCCNC(=N)N)C(=O)N2CCC[C@H]2C(N)=O)O[C@H](CO)[C@H](O)[C@@H]1O
notes: source: synthetic peptide (Fmoc solid phase, Rink Amide MBHA resin, HPLC)
With B4, the entries for the “glycosyltransferase activity relative to WT (UDP-Glo, 500 nM mutant, 500 μM UDP-Gal, 500 μM APDT*RP)” value in the series with DmC1GalT1^T43-Q388 Y325A, with DmC1GalT1^T43-Q388 R152A and with DmC1GalT1^T43-Q388 Y213A were 25 fold decrease, 15 fold decrease and 25 fold decrease, respectively. In series [6], the binding result is listed as “binds”.

B5: P7 glycopeptide YADT*GPF (GalNAc on Thr) (peptide)
peptide: YADT(αGalNAc)GPF-NH2
notes: Asp at -1; Tied to the name P7 by the text (Asp at -1; ITC was done with P4 and P7 only besides APDT*RP); Made on Rink Amide MBHA resin, so probably a C-terminal amide (surmised); source: synthetic peptide (solid-phase synthesis, HPLC purified)
On to B5, for which the Kd in series [7] amounted to 37.1 µM; in series [8] it was 60 µM.

B6: P7 (YADT*GPF) glycopeptide (peptide)
peptide: YADT(αGalNAc)GPF-NH2
notes: as for B3
B6: in [4], the Kd was 37.1 µM and the “stoichiometry N” value was found to be 0.65. In series [5], the Kd was determined as 60 µM and the “stoichiometry N” value was determined as 1.5.

B7: P4 glycopeptide PAAT*GPY (GalNAc on Thr) (peptide)
peptide: PAAT(αGalNAc)GPY-NH2
notes: Tied to the name P4 by the residues that the text names for P4 (Pro1, Ala2, Ala3, Thr4, Gly5, Tyr7); Made on Rink Amide MBHA resin, so probably a C-terminal amide (surmised); source: synthetic peptide (solid-phase synthesis, HPLC purified)
As for B7, the Kd in series [7] amounted to 41 µM; in series [8], 60.3 µM.

Broadly, the stoichiometry N is a count of units in the complex or per binding partner. For orientation: Kd means the constant that tells how readily two partners part at equilibrium.
